Laboratory results: patent publication US10247735B2, “Compositions and methods for regulating glucose metabolism” (The J. David Gladstone Institutes, priority 2011, dated 2019)

T1: p75^NTR ICD (Homo sapiens, UniProt P08138)
T1 construct: peptide array data of Rab31 peptides with p75^NTR intracellular domain (ICD)
T1 sequence (P08138 273-427 limits assumed): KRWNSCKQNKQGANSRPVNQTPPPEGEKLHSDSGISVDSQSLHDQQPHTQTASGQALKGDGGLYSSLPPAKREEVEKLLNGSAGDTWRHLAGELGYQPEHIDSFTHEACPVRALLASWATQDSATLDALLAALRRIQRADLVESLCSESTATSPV

T2: Rab31 (Homo sapiens, UniProt Q13636)
T2 sequence (Q13636 1-195): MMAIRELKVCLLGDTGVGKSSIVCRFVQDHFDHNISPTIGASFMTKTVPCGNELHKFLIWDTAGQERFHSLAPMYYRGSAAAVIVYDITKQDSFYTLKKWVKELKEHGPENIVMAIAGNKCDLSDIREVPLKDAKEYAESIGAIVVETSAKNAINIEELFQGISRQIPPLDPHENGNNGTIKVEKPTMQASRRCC

B1: BDNF: p75^NTR neurotrophin ligand, brain-derived neurotrophic factor (Peprotech) (protein, UniProt P23560 19-247, looked up)
Neurotrophic factor BDNF …: APMKEANIRGQGGLAYPGVRTHGTLESVNGPKAGSRGLTSLADTFEHVIEELLDEDQKVRPNEENNKDADLYTSRVMLSSQVPLEPPLLFLLEEYKNYLDAANMSMRVRRHSDPARRGELSVCDSISEWVTAADKKTAVDMSGGTVTVLEKVPVSKGQLKQYFYETKCNPMGYTKEGCRGIDKRHWNSQCRTTQSYVRALTMDSKKRIGWRFIRIDTSCVCTLTIKRGR

Tests used:
p75^NTR ICD = target: T1, p75^NTR ICD; experiment: Peptide array of Rab31 peptides with GST-p75^NTR ICD; assay type: binding; conditions: peptide array of overlapping Rab31 peptides, 1 μg/ml GST-p75^NTR ICD
Description: Peptide arrays were manufactured by Kinexus Bioinformatics Corporation (Vancouver, Canada). Synthetic overlapping peptides (25 amino acids in length) for Rab31 were spotted on nitrocellulose membranes. Membranes were overlaid with 1 μg/ml recombinant GST-p75^NTR ICD. Bound recombinant GST-p75ICD were detected using rabbit anti-p75^NTR (1:1000, Millipore) followed by secondary anti-rabbit horseradish peroxidase antibody (1:5000, Cell Signaling).

Rab31 = target: T2, Rab31; experiment: Peptide array mapping of p75ICD peptides with GST-Rab31; assay type: binding; conditions: peptide array of overlapping p75ICD peptides, 1 μg/ml GST-Rab31
Description: (§1) Peptide arrays were manufactured by Kinexus Bioinformatics Corporation (Vancouver, Canada). Synthetic overlapping peptides (25 amino acids in length) for p75ICD were spotted on nitrocellulose membranes. Membranes were overlaid with 1 μg/ml recombinant GST-Rab31, GST-Rab5 and p75^NTR ICD. Bound recombinant GST-Rab31 and GST-Rab5 were detected using rabbit anti-GST (1:1000, Cell Signaling) and bound recombinant p75ICD was detected using rabbit anti-p75^NTR (1:1000, Millipore) followed by secondary anti-rabbit horseradish peroxidase antibody (1:5000, Cell Signaling).

Rab5 = experiment: Peptide array mapping of p75ICD peptides with GST-Rab5; assay type: binding; conditions: peptide array of overlapping p75ICD peptides, 1 μg/ml GST-Rab5
Description: as §1

3T3L1 adipocytes = experiment: Glucose uptake assay in 3T3L1 adipocytes; assay type: cell-based, mouse; conditions: for glucose uptake: addition of neurotrophin ligand, 100 ng/ml NGF or 50 ng/ml BDNF; for basal and insulin-stimulated glucose uptake: neurotrophin treatment for 1 h before insulin stimulation
Description: 3T3L1 cells were maintained in DMEM containing 10% bovine serum. All media were supplemented with 1% penicillin/streptomycin (Invitrogen). Mouse embryonic fibroblasts (MEFs) were isolated from wild-type (WT) and p75^NTR−/− embryos as described (5). Briefly, heads and internal organs were removed from E12-14 embryos, and the remaining embryo was minced with scissors. Ten ml of ice cold phosphate-buffered saline (PBS) was added and minced embryos were centrifuged for 5 minutes at 500×g. Each embryo was resuspended in 7.5 ml Trypsin-EDTA for 20 minutes at 37° C. with occasional shaking. After trypsin deactivation by 7.5 ml DMEM with 10% FBS the suspension was poured through a 70 μm filter and cells were cultured in DMEM with 10% fetal bovine serum (FBS). Differentiation of 3T3L1 cells and MEFs was performed as described (6). Briefly, differentiation was induced by incubating confluent monolayers for 3 days in DMEM containing 10% fetal bovine serum (FBS), 0.5 mM 3-isobutyl-1-methylxanthine, 0.4 μg/ml dexamethasone, and 1 μg/ml of insulin. Medium was replaced every 2 days with DMEM containing 10% FBS. After 8-12 days, 75% of the cells expressed the adipocyte phenotype as assessed by Oil Red O. Isolation of primary adipocytes from epididymal fat pads was performed as described (7). Briefly, fat pads were minced in Krebs-Ringer Bicarbonate-Hepes (KRBH) buffer, pH 7.4, treated with collagenase (Invitrogen) for 40 min, filtered through a nylon strainer and centrifuged at 400×g for 1 minute. Fully-differentiated adipocytes were transfected by electroporation using Amaxa Cell Line Nucleofector kit L (Lonza) following manufacturer's instructions. For p75^NTR knockdown experiments, 3T3L1 cells were differentiated for 6-8 days and infected with lentivirus encoding a short hairpin shRNA for mouse p75^NTR (8) and L6 myocytes were transfected with siGENOME SMART pool for rat p75^NTR (Thermo Scientific).
Fully differentiated 3T3L1 adipocytes and eight day differentiated WT and p75^NTR−/− MEFs were serum-starved for 3 hrs in DMEM and then equilibrated in Hepes/Salt (H/S) buffer for 30 min prior to treatment with 100 nM insulin for 30 min at 37° C. Thirty min after the addition of insulin, [^3H]-2-deoxyglucose (Amersham) and 2 mM 2-deoxyglucose (Sigma) in H/S buffer was added. After incubation at 37° C. for 10 min, the reactions were terminated by washing twice with ice-cold PBS. Cells were lysed in 1 M NaOH for 30 min at room temperature. An equal volume of 1 M HCl was added and incorporated radioactivity was measured by liquid scintillation counting. […] The fat cells were isolated and the level of radioactivity was counted. […]

Molecule	binding to p75^NTR ICD (p75^NTR ICD)	interaction with Rab31-GST (Rab31)	interaction with Rab5-GST (Rab5)	glucose uptake (3T3L1 adipocytes)	basal and insulin-stimulated glucose uptake (3T3L1 adipocytes)
EHGPENIVMAIAGNK [Peptide 6]	binds	–	–	–	–
LLASWATQDSATLDA [peptide 7, p75^NTR ICD death-domain peptide, aa 386-400, helix 4 and region between helixes 4 and 5]	–	strongest interactions	strongest interactions	–	–
NGF: p75^NTR neurotrophin ligand, nerve growth factor (Peprotech)	–	–	–	did not affect	No statistically significant differences
B1	–	–	–	did not affect	No statistically significant differences
